Data taken from IntAct's records for PubMed 16762039.

Target: hic1_human HIC1 (UniProt Q14526)
Sequence (Q14526 whole entry): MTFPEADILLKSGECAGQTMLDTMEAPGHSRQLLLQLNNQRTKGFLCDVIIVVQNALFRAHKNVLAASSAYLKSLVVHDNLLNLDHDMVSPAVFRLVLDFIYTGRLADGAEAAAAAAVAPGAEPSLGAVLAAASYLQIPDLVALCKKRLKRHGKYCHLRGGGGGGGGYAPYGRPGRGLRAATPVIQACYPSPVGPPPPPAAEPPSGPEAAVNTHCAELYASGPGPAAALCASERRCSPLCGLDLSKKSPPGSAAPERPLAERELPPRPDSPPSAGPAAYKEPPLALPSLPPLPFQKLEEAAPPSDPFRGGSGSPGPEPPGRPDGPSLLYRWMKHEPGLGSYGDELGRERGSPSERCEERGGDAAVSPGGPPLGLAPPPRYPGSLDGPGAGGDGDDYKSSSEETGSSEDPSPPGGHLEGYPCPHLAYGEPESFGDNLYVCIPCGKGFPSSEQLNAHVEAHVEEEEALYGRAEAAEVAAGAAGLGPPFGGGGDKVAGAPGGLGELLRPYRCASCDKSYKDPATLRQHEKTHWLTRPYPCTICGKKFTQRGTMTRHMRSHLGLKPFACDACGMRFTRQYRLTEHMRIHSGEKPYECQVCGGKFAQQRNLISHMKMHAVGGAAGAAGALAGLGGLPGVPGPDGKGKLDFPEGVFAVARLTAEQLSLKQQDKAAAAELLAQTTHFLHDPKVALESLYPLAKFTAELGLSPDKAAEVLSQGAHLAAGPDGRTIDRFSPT

Chain of C-terminal-binding protein 2 (Mus musculus), P56546 A58E (P56546 whole entry A58E): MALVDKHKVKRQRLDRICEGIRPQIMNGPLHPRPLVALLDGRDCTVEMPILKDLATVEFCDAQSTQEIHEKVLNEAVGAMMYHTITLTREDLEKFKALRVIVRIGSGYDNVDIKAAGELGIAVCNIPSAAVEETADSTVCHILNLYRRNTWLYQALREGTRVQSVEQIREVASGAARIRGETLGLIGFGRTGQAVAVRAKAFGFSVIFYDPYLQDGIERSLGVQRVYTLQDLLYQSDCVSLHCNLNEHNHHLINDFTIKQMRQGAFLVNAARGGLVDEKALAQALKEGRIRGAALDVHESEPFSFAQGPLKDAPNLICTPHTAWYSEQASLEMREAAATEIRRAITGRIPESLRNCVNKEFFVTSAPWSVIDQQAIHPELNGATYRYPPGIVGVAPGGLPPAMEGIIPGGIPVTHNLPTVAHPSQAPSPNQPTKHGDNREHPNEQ
Chain of C-terminal-binding protein 2 (Mus musculus), P56546 V72R (P56546 whole entry V72R): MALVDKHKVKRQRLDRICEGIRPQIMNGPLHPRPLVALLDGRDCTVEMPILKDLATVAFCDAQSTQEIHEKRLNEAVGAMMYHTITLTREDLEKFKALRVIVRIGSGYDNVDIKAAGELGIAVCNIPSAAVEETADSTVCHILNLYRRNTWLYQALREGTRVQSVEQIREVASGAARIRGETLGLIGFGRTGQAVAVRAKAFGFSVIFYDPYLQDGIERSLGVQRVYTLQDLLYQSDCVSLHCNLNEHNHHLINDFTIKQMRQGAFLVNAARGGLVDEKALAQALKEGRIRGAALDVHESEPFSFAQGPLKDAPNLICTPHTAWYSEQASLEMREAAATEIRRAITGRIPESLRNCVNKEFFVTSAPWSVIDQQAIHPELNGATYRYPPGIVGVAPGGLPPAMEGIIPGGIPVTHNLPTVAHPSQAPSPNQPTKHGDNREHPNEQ

| effect of a mutation on the interaction | Substance |
| --- | --- |
| disrupting interaction | C-terminal-binding protein 2 (Mus musculus), P56546 A58E |
| disrupting interaction | C-terminal-binding protein 2 (Mus musculus), P56546 V72R |
